Experimental data published in publication PMC12051055, “Spectroscopy and crystallography define carotenoid oxygenases as a new subclass of mononuclear non-heme Fe^II enzymes” (The Journal of Biological Chemistry, 2025).

Legend:
[1] = test system: Oc1cc(O)cc(/C=C/c2ccc(O)c(O)c2)c1; assay: X-ray crystal structure of complex, MCD; the value is the apparent Km from steady-state kinetics; format: biochemical, Neurospora crassa; details: Fe(II) active site
[2] = test system: CC=Cc1ccc(O)c(OC)c1; assay: steady-state kinetics of cleavage to vanillin by purified enzyme (apparent Km); format: biochemical, Neurospora crassa; details: Fe(II)
[3] = ~[…]° rotation of the β-ring toward the vacancy left from the absent Thr side chain
[4] = β-ring rotated ~[…]° away from the Val151 side chain

Substance | Km ([1]; rotation of the β-ring toward the vacancy left from the absent Thr side chain) [µM] | kcat [1, 3] [s⁻¹] | kcat/Km [1, 3] [M⁻¹ s⁻¹] | Km [2] [µM] | Km ([1]; β-ring rotated away from the Val151 side chain) [µM] | kcat [1, 4] [s⁻¹] | kcat/Km [1, 4] [M⁻¹ s⁻¹]
CAO1 (Neurospora crassa carotenoid oxygenase 1) (Neurospora crassa OR74A; T151G) | 0.110 ± 0.013 | 0.089 ± 0.003 | 810000 ± 100000 |  |  |  | 
CAO1 (Neurospora crassa carotenoid oxygenase 1) (Neurospora crassa OR74A; T151V) |  |  |  | 93.92 ± 12.27 | 0.027 ± 0.003 | 1.04 ± 0.024 | 3.87e+07 ± 4.42e+06
